Several values for one entry are separate records, joined by “and”; a condition that tells them apart may be missing. Equal values may be shown once.
Assays:
[1] = target: Bpa 31-146 (Mycobacterium tuberculosis) (UniProt P9WKX3); assay: NMR titration
[2] = target: Bpa 31-146 (Mycobacterium tuberculosis) (UniProt P9WKX3); assay: NMR CPMG relaxation dispersion
[3] = target: the molecule itself; assay: methyl-TROSY NMR
[4] = target: the molecule itself; assay: native MS
[5] = target: the molecule itself; assay: NMR pulsed-field gradient diffusion

“DNA-binding domain of human telomeric repeat-binding factor 1 (residues 378-430) (domain or fragment)” was tested, and the Kd [1] was < 200 nM and 1500 nM, the stoichiometry N (hTRF1 molecules per Bpa dodecamer) [1] was 3 and the exchange rate between Bpa free and bound with hTRF1 (CPMG) [2] was greater than 1500 s⁻¹.

B1: Bpa 31-146 (domain or fragment)
chain: DSDESSLTDLVEQPAKVMRIGTMIKQLLEEVRAAPLDEASRNRLRDIHATSIRELEDGLAPELREELDRLTLPFNEDAVPSDAELRIAQAQLVGWLEGLFHGIQTALFAQQMAARA
With B1 the “stoichiometry N” value [3] was 12.

B2: wild-type (WT) Mycobacterium tuberculosis bacterial proteasome activator Bpa (Rv3780) (natural protein)
chain: MVIGLSTGSDDDDVEVIGGVDPRLIAVQENDSDESSLTDLVEQPAKVMRIGTMIKQLLEEVRAAPLDEASRNRLRDIHATSIRELEDGLAPELREELDRLTLPFNEDAVPSDAELRIAQAQLVGWLEGLFHGIQTALFAQQMAARAQLQQMRQGALPPGVGKSGQHGHGTGQYL
B2 was tested, and the “stoichiometry N” value [4] was 2 and the “stoichiometry N” value [5] was 4.
